Tests used:
Assay in all cases: ELISA: SEAP-His proteins (1 nM) captured on anti-6-His antibody, antibody A 10 µg/mL with human IgG 100 µg/mL, HRP anti-mouse IgG, OD450 as % of human EphA4-SEAP-His
[1] = target: T1, human EphA8 extracellular region-SEAP-His protein (human, UniProt P29322 28-542)
T1 construct: extracellular domain; also called Eph receptor extracellular region-SEAP-His protein; not shown: secretory alkaline phosphatase (SEAP); histidine tag
T1 sequence (looked up): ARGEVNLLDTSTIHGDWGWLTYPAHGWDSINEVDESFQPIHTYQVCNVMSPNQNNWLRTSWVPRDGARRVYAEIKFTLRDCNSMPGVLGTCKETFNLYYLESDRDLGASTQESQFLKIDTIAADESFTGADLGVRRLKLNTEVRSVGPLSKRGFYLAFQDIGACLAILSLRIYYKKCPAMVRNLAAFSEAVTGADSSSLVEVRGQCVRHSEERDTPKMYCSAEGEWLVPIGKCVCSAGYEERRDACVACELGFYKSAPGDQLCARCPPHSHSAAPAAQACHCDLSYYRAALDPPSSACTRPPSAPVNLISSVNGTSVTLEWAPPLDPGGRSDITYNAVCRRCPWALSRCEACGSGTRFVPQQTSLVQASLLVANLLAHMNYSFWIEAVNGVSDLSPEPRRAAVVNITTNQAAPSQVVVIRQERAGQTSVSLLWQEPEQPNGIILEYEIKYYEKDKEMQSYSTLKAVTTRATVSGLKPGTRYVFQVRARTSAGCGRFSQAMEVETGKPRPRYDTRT
Procedure: (§1) Rabbit anti-6-His antibodies (Bethel Laboratories) were coated onto the wells of a 96-well plate (Nunc). After incubating at 4° C. overnight, the wells were blocked at room temperature for 1 hour by 1% Block Ace (DS Pharma Biomedical). After washing 3 times with 0.05% Tween 20/PBS (Thermo […]), each Eph receptor of human extracellular region-SEAP-His protein (final concentration 1 nM) was seeded into each well, and incubated at room temperature for 1 hour. After washing 3 times, human IgG solution (100 μg/mL, Mitsubishi Pharma Corporation) and antibody A (10 μg/mL) were supplemented to the wells, and incubated at room temperature for 1 hour. Horseradish peroxidase-labeled donkey anti-mouse IgG antibody (Jackson ImmunoResearch Laboratories) was added, and incubated at room, temperature for 1 hour. After washing 3 times, TMBZ (3,3′,5,5′-tetramethylbenzidine, Sigma) solution was added to the wells, and upon confirmation of modest coloring, an equal amount of quenching solution (1 N H₂SO₄, Wako Pure Chemicals) was added to the wells, and absorbance at 450 nm was read by a microplate reader (PerkinElmer).

[2] = target: T2, human EphB6 extracellular region-SEAP-His protein (human, UniProt O15197 32-594)
T2 construct: extracellular domain; also called Eph receptor extracellular region-SEAP-His protein; not shown: secretory alkaline phosphatase (SEAP); histidine tag
T2 sequence (looked up): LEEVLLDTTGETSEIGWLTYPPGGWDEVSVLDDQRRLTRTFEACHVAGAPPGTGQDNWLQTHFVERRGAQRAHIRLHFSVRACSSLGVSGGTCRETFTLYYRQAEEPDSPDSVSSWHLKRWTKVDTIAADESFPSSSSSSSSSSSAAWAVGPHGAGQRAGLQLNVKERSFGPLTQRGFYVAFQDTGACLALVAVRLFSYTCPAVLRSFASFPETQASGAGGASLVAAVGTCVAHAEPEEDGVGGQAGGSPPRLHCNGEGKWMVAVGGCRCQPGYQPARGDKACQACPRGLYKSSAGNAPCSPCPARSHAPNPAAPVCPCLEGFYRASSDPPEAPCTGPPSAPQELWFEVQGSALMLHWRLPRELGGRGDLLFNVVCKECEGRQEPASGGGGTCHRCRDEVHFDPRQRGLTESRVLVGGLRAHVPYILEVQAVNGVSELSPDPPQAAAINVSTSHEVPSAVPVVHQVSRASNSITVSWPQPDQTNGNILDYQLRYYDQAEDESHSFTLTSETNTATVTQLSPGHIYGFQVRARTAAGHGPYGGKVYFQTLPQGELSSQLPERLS
Procedure: as §1

[3] = target: T3, human EphA10 extracellular region-SEAP-His protein (human, UniProt Q5JZY3 34-565)
T3 construct: extracellular domain; also called Eph receptor extracellular region-SEAP-His protein; not shown: secretory alkaline phosphatase (SEAP); histidine tag
T3 sequence (looked up): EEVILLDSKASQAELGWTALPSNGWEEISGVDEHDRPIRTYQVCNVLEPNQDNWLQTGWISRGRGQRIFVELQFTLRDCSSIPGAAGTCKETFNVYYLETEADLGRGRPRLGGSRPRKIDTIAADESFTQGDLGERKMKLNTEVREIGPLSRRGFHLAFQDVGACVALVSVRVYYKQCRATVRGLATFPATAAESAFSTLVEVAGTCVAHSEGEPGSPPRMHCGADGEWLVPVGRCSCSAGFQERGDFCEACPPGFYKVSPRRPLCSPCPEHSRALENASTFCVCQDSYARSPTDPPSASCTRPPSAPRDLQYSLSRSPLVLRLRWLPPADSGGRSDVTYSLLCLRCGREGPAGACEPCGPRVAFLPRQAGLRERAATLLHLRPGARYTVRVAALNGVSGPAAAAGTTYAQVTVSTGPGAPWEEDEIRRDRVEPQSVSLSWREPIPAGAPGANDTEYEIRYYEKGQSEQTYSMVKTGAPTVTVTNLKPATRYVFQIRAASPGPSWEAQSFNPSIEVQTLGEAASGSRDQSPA
Procedure: as §1

[4] = target: T4, human EphA5 extracellular region-SEAP-His protein (human, UniProt P54756 25-573)
T4 construct: extracellular domain; also called Eph receptor extracellular region-SEAP-His protein; not shown: secretory alkaline phosphatase (SEAP); histidine tag
T4 sequence (P54756 25-573): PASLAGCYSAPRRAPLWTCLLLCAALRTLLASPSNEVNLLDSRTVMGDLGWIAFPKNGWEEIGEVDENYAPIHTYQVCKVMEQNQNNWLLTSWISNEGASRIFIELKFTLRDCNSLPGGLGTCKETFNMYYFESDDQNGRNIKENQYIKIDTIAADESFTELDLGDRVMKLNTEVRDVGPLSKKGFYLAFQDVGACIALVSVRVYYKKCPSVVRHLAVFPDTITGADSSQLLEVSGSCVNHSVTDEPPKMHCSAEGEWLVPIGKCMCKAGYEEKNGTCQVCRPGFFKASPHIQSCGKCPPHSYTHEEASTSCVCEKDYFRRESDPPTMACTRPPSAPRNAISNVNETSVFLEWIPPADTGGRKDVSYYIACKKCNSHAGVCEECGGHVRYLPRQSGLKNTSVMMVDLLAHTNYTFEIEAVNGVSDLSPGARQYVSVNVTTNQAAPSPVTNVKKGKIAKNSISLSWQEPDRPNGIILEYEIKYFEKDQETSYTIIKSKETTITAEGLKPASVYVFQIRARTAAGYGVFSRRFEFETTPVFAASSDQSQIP
Procedure: as §1

Measured: binding result

B1: mouse anti-EphA4 monoclonal antibody (antibody A) (antibody, mouse IgG1, kappa, V domains shown)
VH: QVQLKQSGPSLVQPSQSLSITCTVSGFSLTRYGVHWVRQSPGKGLEWLGVIWRGGSTDYNAAFMSRLSITKDNSKSQVFFKMNSLQADDTAIYYCAKESLFGVYYDYGYYSMDYWGQGTSVTVSS
VL: DIQMTQSPSSLSASLGERVSLTCRASQEISGYLSWLQQKPDGTIKRLIYAASTLDSGVPKRFSGSRSGSDYSLTISSLESEDFADYYCLQYASYPLTFGAGTKLELKR
notes: purified from hybridoma supernatant
no binding (tested: 10 µg/mL): [1] | [2] | [3] | [4]

Reference: patent publication US20240010735A1 (EISAI R AND D MANAGEMENT, published 2024)
